One experiment addresses T1, murine TFPI (murine, UniProt O54819 29-289, limits assumed).
T1 construct: also called murine TFPI-1
T1 sequence (looked up): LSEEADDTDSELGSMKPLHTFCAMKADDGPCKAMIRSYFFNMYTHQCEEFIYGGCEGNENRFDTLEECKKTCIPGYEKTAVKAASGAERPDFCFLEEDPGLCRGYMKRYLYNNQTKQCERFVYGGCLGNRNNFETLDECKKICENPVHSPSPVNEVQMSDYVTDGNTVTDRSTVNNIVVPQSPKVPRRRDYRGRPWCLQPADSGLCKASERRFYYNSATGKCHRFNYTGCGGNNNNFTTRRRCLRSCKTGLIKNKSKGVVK
The experiment in a line: not specified.

The target in experiment [1] is T2, TFPI (human TFPI-1α), as coated or added in the ELISA and model assays (human, UniProt P10646 29-304, limits assumed). The experiment in a line: ELISA affinity (column head says EC50). (In general: An ELISA detects its analyte on a solid surface through an enzyme-linked reagent.)
The target of experiment [2] is T2, TFPI (human TFPI-1α), as coated or …. Description: cell-based or functional assay.

3 molecules from patent publication US20170157198A1 (BAXALTA, published 2017) can be followed below.

[ ]: non-standard residue; d: D form. Aib = CC(C)(N)C(=O)O

B1: JBT2329 (peptide)
peptide: FQSKPNVHVDGYFERLXAKLC
modifications: N-terminal acetyl (Ac); D-proline at 5; Aib at 17; C-terminal C(PEG), linear PEG 41.5 kD; C-terminal amide (NH2)
As to B1, the binding result in the experiment with murine TFPI is reported as “binds”. As for Ac-FQSK[dP]NVHVDGYFC(linear PEG 40 kDa)RL[Aib]AKL-NH2 [JBT2404], the concentration for a half-maximal effect (EC50) – broadly, the concentration at which the effect is half-maximal – in experiment [1] was found to be 18.2 nM. Moreover, in experiment [2], the “FXa Inhibition EC50” value is 13.4 nM.

B2: JBT2430 (peptide)
peptide: FQSKPNVHVDGYFERLXAKLK
modifications: not fully specified; K(AOA) coupled to PSA (polysialic acid) aldehyde; D-proline at 5; Aib at 17
Consider B2, for which the “FXa Inhibition EC50” value in experiment [2] was found to be 9 nM.
